Assay [1] has as its target T1, animal free recombinant human IL-6 (PeproTech Inc.) (human, UniProt P05231 30-212).
T1 construct: Bought reagent, coated on the ELISA plate; also called interleukin-6
Description: ELISA, antigen coated at 5 ug/mL, HRP anti-human IgG Fc detection. As to the method: (§1) The affinity of each antibody for an antigen was measured by ELISA method. As antigens of each antibody, human CD20/MS4A1 full-length protein, His tag (HEK293) (ACROBiosystems Inc.), recombinant human ErbB2/Her2 Fc chimera (R&D Systems Inc.), chicken egg white-derived lysozyme (Sigma-Aldrich), animal free recombinant human IL-6 (PeproTech Inc.) and interleukin 8 (CXCL8) (Shenandoah Biotechnology, Inc.) were used. Specific operations are as follows. A solution of various antigens diluted to 5 μg/mL with PBS was added to each well of a 96-well plate (Nunc), and the plate was incubated at 4° C. overnight. After removing the solution from each well, 1% BSA/PBS was added, and the plate was incubated at room temperature for 3 hours. The solution was removed from each well, and then the plate washed three times with PBST. An antibody solution was added to each well, and the plate was incubated at room temperature for 15 minutes. The solution was removed from each well, and then the plate washed three times with PBST. A solution of HRP-labeled anti-human IgG Fc antibody (Bethyl Laboratories, Inc.), HRP-labeled goat F(ab′)2 fragment anti-mouse IgG (H+L) (Beckman Coulter, Inc.) or HRP-conjugated streptavidin (Thermo Fisher Scientific Inc.) diluted to 0.3 μg/mL with 1% BSA/PBS was added to each well, and the plate was incubated at room temperature for 1 hour. The solution was removed from each well, and then the plate washed three times with PBST. Chromogenic reaction was performed using KPL TMB (registered trademark) Peroxidase Substrate (SeraCare Life Sciences, Inc.) and the chromogenic reaction was stopped using KPL TMB (registered trademark) Peroxidase Stop Solution (SeraCare Life Sciences, Inc.). Absorbance at 450 nm was measured using a SpectraMax (registered trademark) 190 microplate reader (Molecular Devices, LLC).

Assay [2] addresses T2, interleukin 8 (CXCL8) (Shenandoah Biotechnology, Inc.) (UniProt P10145 28-99, limits assumed).
T2 construct: Bought reagent, coated on the ELISA plate; also called IL-8
T2 sequence (looked up): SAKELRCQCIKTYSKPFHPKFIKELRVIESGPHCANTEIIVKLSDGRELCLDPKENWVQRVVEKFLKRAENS
The description is as above. The procedure:
as §1

The target of assay [3] is T3, recombinant human ErbB2/Her2 Fc chimera (R&D Systems Inc.) (human, UniProt P04626 23-652).
T3 construct: Bought reagent, coated on the ELISA plate; also called antigen of trastuzumab; Fc part of the bought chimera not given
Description: ELISA, antigen coated at 5 ug/mL, biotin-labeled antibody, HRP-streptavidin. The procedure:
as §1

For assay [4], the target named is T4, human CD20/MS4A1 full-length protein, His tag (HEK293) (ACROBiosystems Inc.) (human, UniProt P11836 1-297).
T4 construct: mature; Bought reagent, coated on the ELISA plate; also called antigen of rituximab; not shown: His tag
T4 sequence (looked up): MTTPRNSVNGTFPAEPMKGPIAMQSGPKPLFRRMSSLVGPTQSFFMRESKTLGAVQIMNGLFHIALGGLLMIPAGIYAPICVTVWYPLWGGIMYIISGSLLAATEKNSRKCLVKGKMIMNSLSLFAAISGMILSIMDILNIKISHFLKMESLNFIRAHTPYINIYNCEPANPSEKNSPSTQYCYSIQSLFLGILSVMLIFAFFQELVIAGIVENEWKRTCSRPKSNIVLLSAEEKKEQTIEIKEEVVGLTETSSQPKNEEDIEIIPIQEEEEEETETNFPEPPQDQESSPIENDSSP
The experiment in a line: ELISA, antigen coated at 5 ug/mL, HRP anti-human IgG Fc detection. As to the method:
as §1

Changes are numbered by the printed parent chain.

B1: anti-IL-6 antibody (mouse/human chimeric antibody), light chain FR3 not substituted (antibody, human IgG1, kappa, V domains shown)
VH: EVQLQQSGPELVKPGASVKMSCKASGYTFTSYVMHWVKQKPGQGLEWIGYINPYNDGTKYNEKFKGKATLTSDKSSSTAYMELSSLTSEDSAVYYCAREGYGNLERDCWGQGTSVTVSS
VL: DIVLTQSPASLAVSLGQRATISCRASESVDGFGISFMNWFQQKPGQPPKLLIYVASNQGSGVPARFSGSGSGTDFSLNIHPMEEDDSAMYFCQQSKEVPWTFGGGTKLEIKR
notes: also called WT; anti-interleukin (IL)-6 antibody
As for B1, in assay [1], the EC50 came out at 0.041 µg/mL and the EC50 ratio was 1 ratio (EC50 in WT taken as 1.0).

B2: R5 variant of anti-IL-6 antibody (antibody, human IgG1, kappa, V domains shown)
VH: B1 VH
VL: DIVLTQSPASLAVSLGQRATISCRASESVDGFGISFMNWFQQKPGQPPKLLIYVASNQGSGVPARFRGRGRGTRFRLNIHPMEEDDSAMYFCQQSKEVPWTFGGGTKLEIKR
notes: IgG; Light chain positions 63, 65, 67, 70 and 72 (Chothia) are arginine; also called anti-IL-6 antibody R5
As to B2, in assay [1], the half-maximal effective concentration (EC50) was determined as 0.0327 µg/mL and the EC50 ratio is 1.3 ratio (EC50 in WT taken as 1.0).

B3: R3 variant of anti-IL-8 antibody (antibody, human IgG1, kappa, V domains shown)
VH: EVKLVESGGGLVKPGGSLKLSCAASGFTFNNYAMSWVRQTPEKRLEWVASISSGGNTYYPDSVKGRFTLSRDNARNILYLQMSRLRSEDTAMYYCARDKLRLPNWYFDVWGAGTTVTVSS
VL: DIVLTQSPPSLAVSLGQRATISCKASQSVDYDGDSYMNWYQQKPGQPPKVLIYGASNLESGIPARFRGRGRGTDFTLNIYPVEEEDAATYYCQQSNEDPPTFGGGTKLEIKR
notes: IgG; Light chain positions 63, 65 and 67 (Chothia) are arginine; also called anti-IL-8 antibody R3
As to B3, in assay [2], the EC50 worked out at 0.269 µg/mL and the EC50 ratio is 1.4 ratio (EC50 in WT taken as 1.0).

B4: anti-IL-8 antibody (mouse/human chimeric antibody), light chain FR3 not substituted (antibody, human IgG1, kappa, V domains shown)
VH: B3 VH
VL: B3 VL with R67S, R69S, R71S
notes: also called WT; anti-IL-8 antibody WT
For B4, in assay [2], the response was half-maximal at 0.39 µg/mL (EC50) and the EC50 ratio was 1 ratio (EC50 in WT taken as 1.0).

B5: R4 variant of anti-IL-8 antibody (antibody, human IgG1, kappa, V domains shown)
VH: B3 VH
VL: B3 VL with D74R
notes: IgG; Light chain positions 63, 65, 67 and 70 (Chothia) are arginine; also called anti-IL-8 antibody R4
In the case of B5, in assay [2], the EC50 is 0.0598 µg/mL and the EC50 ratio is 6.5 ratio (EC50 in WT taken as 1.0).

B6: R3 variant of trastuzumab (antibody, human IgG1, kappa, V domains shown)
VH: not shown
VL: DIQMTQSPSSLSASVGDRVTITCRASQDVNTAVAWYQQKPGKAPKLLIYSASFLYSGVPSRFSGRRRGTRFTLTISSLQPEDFATYYCQQHYTTPPTFGQGTKVEIKR
notes: IgG; Light chain positions 65, 67 and 70 (Chothia) are arginine; Labeled with biotin (Biotin Labeling Kit-NH2) before the ELISA; also called trastuzumab R3
On to B6, for which, in assay [3], the EC50 is 0.0252 µg/mL and the EC50 ratio is 2 ratio (EC50 in WT taken as 1.0).

B7: R4 variant of trastuzumab (antibody, human IgG1, kappa, V domains shown)
VH: not shown
VL: B6 VL with S63R
notes: IgG; Light chain positions 63, 65, 67 and 70 (Chothia) are arginine; Labeled with biotin (Biotin Labeling Kit-NH2) before the ELISA; also called trastuzumab R4
Regarding B7, in assay [3], the EC50 is 0.0342 µg/mL and the EC50 ratio was 1.5 ratio (EC50 in WT taken as 1.0).

B8: R3 variant of rituximab (antibody, human IgG1, kappa, V domains shown)
VH: QVQLQQPGAELVKPGASVKMSCKASGYTFTSYNMHWVKQTPGRGLEWIGAIYPGNGDTSYNQKFKGKATLTADKSSSTAYMQLSSLTSEDSAVYYCARSTYYGGDWYFNVWGAGTTVTVSA
VL: QIVLSQSPAILSASPGEKVTMTCRASSSVSYIHWFQQKPGSSPKPWIYATSNLASGVPVRFRGRGRGTSYSLTISRVEAEDAATYYCQQWTSNPPTFGGGTKLEIKR
notes: IgG; Light chain positions 63, 65 and 67 (Chothia) are arginine; Heavy chain is that of rituximab; also called rituximab R3
As for B8, in assay [4], the EC50 is 1.71 µg/mL and the EC50 ratio is 74.6 ratio (EC50 in WT taken as 1.0).

B9: rituximab (mouse/human chimeric antibody), light chain FR3 not substituted (antibody, human IgG1, kappa, V domains shown)
VH: B8 VH
VL: B8 VL with R62S, R64S, R66S
notes: also called WT; rituximab WT
B9 showed a concentration giving a half-maximal response (EC50) in assay [4] of 127 µg/mL.

B10: R5 variant of rituximab (antibody, human IgG1, kappa, V domains shown)
VH: B8 VH
VL: B8 VL with S69R, S71R
notes: IgG; Light chain positions 63, 65, 67, 70 and 72 (Chothia) are arginine; also called rituximab R5
On to B10, for which, in assay [4], the concentration for a half-maximal effect (EC50) was determined as 0.027 µg/mL and the EC50 ratio was 4710 ratio (EC50 in WT taken as 1.0).

(Values after patent US20230203435A1 (SYSMEX, published 2023).)
